Assay results as given in US20230079150A1, “METHODS FOR PREVENTION OR TREATMENT OF VIRUS-INDUCED ORGAN INJURY OR FAILURE WITH IL-22 DIMER” (priority 2020, published 2023).
Like-named read-outs stand apart in the source and are kept apart here.

Key:
SARS-CoV-2 = assay type: cell-based, human; conditions: for sgm-N RNA copies compared to no F-652 treatment: MOI 0.1, 48 hours post challenge
C57BL/6 mice = assay: LPS acute lung injury mouse model: histopathology score; assay type: in vivo
Procedure: (§1) After approval from the Tulane University, Institutional Animal Care and Use Committee (protocol ID 607), equal numbers of male and female, 6-8 week old C57BL/6 mice (Charles River Laboratories, Cambridge, Mass.) were given acute lung injury (ALI) via intra-tracheally administered LPS. After obtaining appropriate depth of anesthesia using isoflurane, the high-dose LPS group (HDG) received 100 μg of LPS administered intra-tracheally. Approximately 30 minutes after LPS administration, 4 μg of F-652 was administered via tail vein injection (n=11), then compared to animals receiving sham injection (n=8) with phosphate-buffered saline (PBS). In the low-dose LPS group (LDG), 33.3 μg of LPS was administered intra-tracheally. F-652 was again administered at 30 minutes (n=9) and compared to sham injected animals (n=9). […]
Immediately after sacrifice, lung tissue from the right lower lobe was fixed in 4% paraformaldehyde and cut into sections. […] Lung injury induced by LPS was assessed by a blinded reviewer with a numerical scoring scale ranging from 0-4. Regions of lung injury in sections were scored for the extent of intimal thickening, alveolitis, and the presence of proteinaceous material in the alveolar space. […]

[1] = LPS acute lung injury mouse model: human IL-22 ELISA in BAL; assay type: in vivo, mice; conditions: high-dose LPS; F-652 4 μg tail vein; day 4; sham non-detectable
Procedure: as §1
(§2) The BAL fluid was then centrifuged at 500×gravity for 5 minutes. […] To quantify protein in the BAL supernatant, a Bradford protein assay (Bio-Rad Laboratories) was performed. Protein was quantified by measuring absorbance at 595 nm on a BMG Labtech FLUOstar Optima plate reader. […] Human IL-22 was measured using an IL-22 Human ELISA kit (ThermoFisher Scientific). Mouse IL-22 was measured using an IL-22 Mouse/Rat Quantikine ELISA kit (R&D Systems).

[2] = test system: H1N1 influenza (A/PR8 strain)
HUVECs = assay: Real-time quantitative RT-PCR of mRNA levels in HUVECs; assay type: cell-based, human
Procedure: RNA was isolated with Trizol (Invitrogen) and used as a template for reverse transcriptase (reverse transcriptase mix sold under the trademark ISCRIPT® RT supermix, Bio-Rad). mRNAs were quantified by real-time PCR with the cyanine nucleic acid dye IQ SYBR® Green Supermix (Bio-Rad), and normalized against PPIA mRNA as the internal control gene. Relative changes in expression were calculated using the […] as established in prior studies. (Livak K J, Schmittgen T D. “Analysis of relative gene expression data using real-time quantitative PCR and the 2^−ΔΔCT method.” Methods. 2001; 25(4):402-8).

[3] = test system: H1N1 influenza (A/PR8 strain); assay type: in vivo, C57BL/6 mice; conditions: both aged and young H1N1-infected mice
mouse IL-22 = assay: LPS acute lung injury mouse model: endogenous mouse IL-22 ELISA in BAL; assay type: in vivo, mice; conditions: low-dose LPS; F-652 4 μg tail vein; day 4; sham non-detectable
Procedure: as §1, §2

[4] = test system: H1N1 influenza (A/PR8 strain); assay type: in vivo, C57BL/6 mice; conditions: aged hosts; treated for 3 weeks
[5] = test system: H1N1 influenza (A/PR8 strain); assay type: in vivo, C57BL/6 mice; conditions: aged mice; data not shown
[6] = LPS and F-652 co-exposed, LPS only 1.49
[7] = LPS and F-652 compared to control

B1: F-652: recombinant IL-22 dimer consisting of two monomeric subunits each comprising a sequence shown in SEQ ID NO: 24 (protein)
chain 1: APISSHCRLDKSNFQQPYITNRTFMLAKEASLADNNTDVRLIGEKLFHGVSMSERCYLMKQVLNFTLEEVLFPQSDRFQPYMQEVVPFLARLSNRLSTCHIEGDDLHIQRNVQKLKDTVKKLGESGEIKAIGELDLLFMSLRNACIGSGGGSGGGGSGGGGSVECPPCPAPPVAGPSVFLFPPKPKDTLMISRTPEVTCVVVDVSHEDPEVQFNWYVDGVEVHNAKTKPREEQFNSTFRVVSVLTVVHQDWLNGKEYKCKVSNKGLPASIEKTISKTKGQPREPQVYTLPPSREEMTKNQVSLTCLVKGFYPSDIAVEWESNGQPENNYKTTPPMLDSDGSFFLYSKLTVDKSRWQQGNVFSCSVMHEALHNHYTQKSLSLSPGK
chain 2: APISSHCRLDKSNFQQPYITNRTFMLAKEASLADNNTDVRLIGEKLFHGVSMSERCYLMKQVLNFTLEEVLFPQSDRFQPYMQEVVPFLARLSNRLSTCHIEGDDLHIQRNVQKLKDTVKKLGESGEIKAIGELDLLFMSLRNACIGSGGGSGGGGSGGGGSVECPPCPAPPVAGPSVFLFPPKPKDTLMISRTPEVTCVVVDVSHEDPEVQFNWYVDGVEVHNAKTKPREEQFNSTFRVVSVLTVVHQDWLNGKEYKCKVSNKGLPASIEKTISKTKGQPREPQVYTLPPSREEMTKNQVSLTCLVKGFYPSDIAVEWESNGQPENNYKTTPPMLDSDGSFFLYSKLTVDKSRWQQGNVFSCSVMHEALHNHYTQKSLSLSPGK
modifications: homodimer
- sgm-N RNA copies compared to no F-652 treatment (SARS-CoV-2; post-treatment, 100 ng/mL F-652 basolaterally on the day post-viral infection): significantly lower
- mapping of RNA-seq reads to the SARS-CoV-2 genome compared to no F-652 treatment (SARS-CoV-2; pre-treatment and post-treatment with 100 ng/mL F-652): reduced mapping
- sgm-N RNA copies compared to no F-652 treatment (SARS-CoV-2; pre-treatment, 100 ng/mL F-652 for 18 hours before infection): significantly lower
- histopathology injury score (scale 0-4) (C57BL/6 mice; high-dose LPS injury, sham 2.0): 1.0
- histopathology scores, F-652 treated vs sham (C57BL/6 mice; low dose LPS injury): did not show any difference
- human IL-22 level in BAL [1]: 27.41 pg/mL
- mice lost during the treatment phase ([2]; aged mice, Days 21-64 post-infection, F-652 200 μg/kg once weekly for 3 weeks, no PBS treated mice lost): 3 mice
- mice lost during the treatment phase ([2]; aged mice, F-652 200 μg/kg once weekly, 6-week treatment group): 2 mice
- mice lost during the treatment phase ([2]; young groups, F-652 200 μg/kg once weekly): no mice were lost
- body weight, F-652 vs PBS treatment groups ([2]; young or aged mice, Days 21-64 post-infection): no notable differences
- ADAM17 levels (HUVECs; F-652 alone, control 1.09): 1.14 RE
- MMP-7 levels (HUVECs; F-652 alone, control 1.11): 1.23 RE
- levels of any matrix metalloproteinase (HUVECs; F-652 only): did not change
- VE-CAD RNA levels (HUVECs; F-652 only exposed, control 1.06): 1.01 RE
- ADAM17 levels (HUVECs; LPS and F-652, control 1.09, LPS 2.42): 1.22 RE
- MMP-7 levels (HUVECs; LPS and F-652, control 1.11, LPS 2.99): 1.53 RE
- MYD88 RNA expression (HUVECs; LPS and F-652 co-exposed, LPS only 1.48): 0.72 RE
- Exostosin-1 level (HUVECs; [6]): 0.82 RE
- TIMP2 level (HUVECs; [6]): 0.82 RE
- IRAK4 mRNA expression (HUVECs; LPS and F-652 co-exposed, LPS only 1.51): 0.86 RE
- Exostosin-2 level (HUVECs; LPS and F-652 co-exposed, LPS only 1.88): 0.99 RE
- TIRAP mRNA expression (HUVECs; LPS and F-652 co-exposed, LPS only 1.92): 0.82 RE
- VE-CAD RNA levels (HUVECs; LPS and F-652 co-exposed, control 1.06, LPS only 1.96): 0.81 RE
- expression of MMP-9 (HUVECs; [7]): did not change
- expression of Matrix Metalloproteinase-1 (MMP-1) (HUVECs; [7]): did not significantly change
- relative expression of MMP-2 (HUVECs; [7]): lower relative expression
- relative expression of MMP-14 (HUVECs; [7]): lower relative expression
- MMP-9 relative expression (HUVECs; LPS and F-652 exposed compared to LPS exposed (2.99)): 1.53 RE
- TLR4 mRNA (HUVECs; all comparisons): not significantly different
- Levels of TRAM, TRAF6, IRAK1, and TRIF (HUVECs; all group comparisons): not significantly different
- Tissue inhibitor of metalloproteinase-1 (TIMP1) (HUVECs; among various HUVEC exposure groups): not different
- hydroxyproline content of right lung lobes compared to PBS control [3]: significantly reduced
- endogenous mouse IL-22 level in BAL (mouse IL-22): 1.22 pg/mL
- lung histology (H&E, Masson's Trichrome, Sirius Red, PAS) [4]: ameliorates much of the H1N1-induced pathology
- CD8+ cells and KRT5+ cells in lungs compared to PBS control [5]: clear trend of decrease
